How the values were obtained:
[1] = target: mouse melanocortin 1 receptor (mouse) (UniProt Q01727)
[2] = target: mouse melanocortin 3 receptor (mouse) (UniProt P33033)
[3] = target: mouse melanocortin 4 receptor (mouse) (UniProt P56450)
[4] = target: mouse melanocortin 5 receptor (mouse) (UniProt P41149)
UniProt P41149, sequence (P41149 whole entry): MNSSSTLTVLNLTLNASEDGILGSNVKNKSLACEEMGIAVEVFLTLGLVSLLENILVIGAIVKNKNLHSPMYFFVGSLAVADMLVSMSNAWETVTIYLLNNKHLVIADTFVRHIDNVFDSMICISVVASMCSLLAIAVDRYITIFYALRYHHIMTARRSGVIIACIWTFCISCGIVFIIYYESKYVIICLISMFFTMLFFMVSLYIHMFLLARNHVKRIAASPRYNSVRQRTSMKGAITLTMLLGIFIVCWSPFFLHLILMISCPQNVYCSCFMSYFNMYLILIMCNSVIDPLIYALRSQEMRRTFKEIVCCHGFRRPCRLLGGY

UniProt Q01727, sequence (Q01727 whole entry): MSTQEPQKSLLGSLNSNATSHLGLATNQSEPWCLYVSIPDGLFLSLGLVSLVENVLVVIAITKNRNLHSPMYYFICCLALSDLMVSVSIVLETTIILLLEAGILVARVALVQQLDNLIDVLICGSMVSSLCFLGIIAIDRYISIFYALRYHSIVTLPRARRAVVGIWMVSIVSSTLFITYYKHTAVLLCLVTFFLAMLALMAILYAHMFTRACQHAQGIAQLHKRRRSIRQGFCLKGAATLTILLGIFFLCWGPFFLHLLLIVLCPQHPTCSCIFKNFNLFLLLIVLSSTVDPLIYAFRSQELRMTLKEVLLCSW
UniProt P56450, sequence (P56450 whole entry): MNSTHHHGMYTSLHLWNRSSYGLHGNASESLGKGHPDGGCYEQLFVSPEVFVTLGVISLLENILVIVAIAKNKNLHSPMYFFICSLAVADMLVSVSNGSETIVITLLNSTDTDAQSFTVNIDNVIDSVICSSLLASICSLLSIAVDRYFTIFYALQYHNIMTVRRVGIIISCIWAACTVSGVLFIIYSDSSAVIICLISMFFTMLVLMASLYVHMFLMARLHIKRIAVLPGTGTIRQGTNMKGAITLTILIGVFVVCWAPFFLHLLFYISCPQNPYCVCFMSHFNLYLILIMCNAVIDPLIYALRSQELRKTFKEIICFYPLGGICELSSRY
UniProt P33033, sequence (P33033 whole entry): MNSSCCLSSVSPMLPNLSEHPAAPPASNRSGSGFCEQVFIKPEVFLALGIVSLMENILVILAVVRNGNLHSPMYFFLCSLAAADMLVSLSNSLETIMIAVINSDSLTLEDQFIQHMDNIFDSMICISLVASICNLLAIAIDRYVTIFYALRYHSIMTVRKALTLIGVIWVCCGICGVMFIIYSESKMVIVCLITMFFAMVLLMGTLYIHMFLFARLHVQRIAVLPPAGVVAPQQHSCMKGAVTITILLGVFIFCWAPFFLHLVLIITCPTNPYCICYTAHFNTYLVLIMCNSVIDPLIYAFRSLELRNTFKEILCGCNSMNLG

Substance | agonist EC50, AlphaScreen cAMP assay on stably transfected HEK293 cells [1] [nM] | agonist EC50, AlphaScreen cAMP assay on stably transfected HEK293 cells [2] [nM] | agonist EC50, AlphaScreen cAMP assay on stably transfected HEK293 cells [3] [nM] | agonist EC50, AlphaScreen cAMP assay on stably transfected HEK293 cells [4] [nM]
ClpB(535-548) (from UniProt P63284 535-548) (peptide) | 41000 |  |  | 
α-MSH (peptide) | 0.14 | 0.5 | 2.9 | 0.51

Source: article PMC4628882
